experiment: soluble on expression in E. coli; label from the status in PepcDB or PDB records

Sequence | soluble on expression in E. coli
MSLGKPLIALGLEGSANKLGVGIILHDTNGSAKILANVRHTYITPPGQGFLPSDTAKHHRAWIIPLIKQAFAEAKISFKDIDCICFTKGPGIGAPLNSVALCARMLSLIHKKPLVAVNHCIGHIEMGREITGAQNPVVLYVSGGNTQVIAYSEKKYRIFGETLDIAIGNCLDRFARIIGLSNAPSPGYNIMQEAKKGKRFIELPYTVKGMDCSFSGLLSGVEAAATELLDPKNPSSVTKQDLCYSLQETGFAMLVEITERAMAHIRADSVLIVGGVGCNERLQQMMAEMSSDRGADVFSTDERFCIDNGIMIAQAGLLAYKTGDRCAVAESTITQRYRTDDVYISWRDEGHHHHHH | soluble
MSLGKTLFDKLWNRHVIYGKEGEPQLLYVDLHLIHEVTSPQAFEGLRMENRPLRRPDKTFATMDHNVPTEDIFNIQDLVAKKQIEALQTNCEEFGVTLADMGSDRQGIVHMVGPETGLTQPGKVIVCGDSHTATHGAFGAIGFGIGSSEVEHVFATQTIWQQKPKSMGIEINGNLPKGVYAKDIILHLIATYGVAFGTGYAVEYYGETIRNMSMEERMTICNMAIEGGAKMGMMAPDETTFEYVRGREYAPADMDKAISDWKTLQTDPDAEYDLHIKMDASILEPYVTWGTNPEMGVPFSKAFPEIKDMNYERAYEYMGLKPGQTAEEIELGYVFIGSCTNARLSDLEEAARIVKGNKVKNNIRALVVPGSRQVRNAAESIGLDKIFIEAGFEWREPGCSMCLGMNPDQVPDGVHCASTSNRNFEGRQGKGARTHLVSPAMAAAAAINGHFIDIRKEAVISGGNEGHHHHHH | not soluble
MSLGKTSMIHAIVDQYSHCEWVENSMSANENNLIWIDLEMTGLDPERDRIIEIATLVTDANLNILAEGPTIAVHQSDEQLALMDDWNVRTHTASGLVERVKASTMGDREAELATLEFLKQWVPAGKSPICGNSIGQDRRFLFKYMPELEAYFHYRYLDVSTLKELARRWKPEILDGFTKQGTHQAMDDIRESVAELAYYREHFIKLEGGSHHHHHH | soluble
MSLGNARMYEALRDYGDRFDTVGIFTFEVDETGTITETGTSISSMLPYIQKWPHIKWLLTIMNHGIANIFTALRNNENGAKDKFLTEIIRIMNKYPWCAGVDIDLERGGGYENKDAANALFRDIYNTVKSYDATKLVNICLPGMIGVQGSVGGENWCVYADLNDYCDTAAIMSYGMAWAGSAPGPVSPRDWLEGIYDYAVSVMSPDKIFMGLPAYGWNWRIHDTPENLGITYRGVSNTYYAAKYWMTGVYNFTGDAPPQPFIPIVAYWDDYNKVPWALPHVYDYMEGWDAVSWEYPLLKGVYNRRRYLTSYGKEQKAEFGTIYIDRNGVPDEYEGNVIITDEMTSLGDAQASAEYRFEIREAGYYDIAVQLCFPYWDKNAIIVSLDGISKTFSENRLWWPYWRRVCWLTLAKGVFLQEGTHAISISGGVPGVQFYGFRVCSGFSEYPFAGEASFMLSPRRFKDVNGVMVEPDRGFKLTFEMLRRKPDSALIWYEDFRDRNILPENYWTVLDGEWDVWQDPDSTENRPYSQLEGYGKLAWKYDGFSDIHIRARLAFPQNSSGRAGVFLGDIFCCLNYDTQRVELYQGNSLLGSYSTSFSKTVDADLRANPNMYTIEMRKRGNKVRVYSGAASTLRFTVNVTGGSGYVGYCSDNRTVCELLRLGDAWVYEPYERFDVELPDGNITSFGRLARTGVTWDDEFQVFSVNNDVEESITRSEDISMDYDFFHSQLLALSCGNDYEVKIILKDINIWISRLFLGDADGFSILYYQDVDSLVYWANEAAYRWKLRGIAIWSLGQEDMRLWEALPKQEGHHHHHH | soluble
MSLGNNYAAKVNDQEISRGQFENAFNSERNRMQQQLGDQYSELAANEGYMKTLRQQVLNRLIDEALLDQYARELKLGISDEQVKQAIFATPAFQVDGKFDNSRYNGILNQMGMTADQYAQALRNQLTTQQLINGVAGTDFMLKGETDELAALVAQQRVVREATIDVNALAAKQPVTEQEIASYYEQNKNNFMTPEQFRVSYIKLVAATMQQPVSDADIQSYYDQHQDQFTQPQRTRYSIIQTKTEDEAKAVLDELNKGGDFAALAKEKSADIISARNGGDMGWLEDATIPDELKNAGLKEKGQLSGVIKSSVGFLIVRLDDIQPAKVKSLDEVRDDIAAKVKHEKALDAYYALQQKVSDAASNDTESLAGAEQAAGVKATQTGWFSKDNLPEELNFKPVADAIFNGGLVGENGASGINSDIITVDGDRAFVLRVSEHKPEAVKPLADVQEQVKALVQHNKAEQQAKVDAEKLLVDLKAGKGAEAMQAAGLKFGEPKTLSRSGRDPISQAAFALPLPAKDKPSYGMATDMQGNVVLLALDEVKQGSMPEDQKKAMVQGITQNNAQIVFEALMSNLRKEAKIKIGDALEQQEGHHHHHH | soluble
MSLGNPAAMLAAYNTSTQVAPQPQLGPRAGEVQLSSEQQAMIDYVLAGKDVIVDATVGSGKTTAIQRLCSIMGADHDVLYLTYSKLLKVDAQQRVRGAKVQNYHGIVYPHLLKAGIKCGISESIREFNKNFKHISRTFPSYDLLVIDEYQDINEDYAELLRNIKSVNPLMQIVMVGDLEQKVRSDTEGHHHHHH | not soluble
MSLGNSAGFGSVGDNSSGGSGANRDANNRPSWFQETARRTIPNTVLRREVKSSSNSGEDDNGNRGDSTSTGFNTLTFGAKKHMLLGSSNVSTGGNDHMNPLLMDNSEAPPTVSISDWKREEGLFDLRNTRNENTINTIGTPTFISPISREKSEVSLFDSNSQSRSSSASSIGSESETGNAVVVFGYREAITKQILAYFAQFGEILEDLESELGDTETMRTPGYFFQQAPNRRRISREHGRTWTKLTYANHSSYLRALREHGTIYCGAAIGCVPYKHELISELSRDTYNSMNDVKQTNSISTNQLTQHNQSEVPKSNQTFETKPTNETERNQIKTPSAFGSDNKGNGSISSGRTKRRLSIKDGSSLFLSGTEGHHHHHH | soluble
MSLGPYYINTHFLYGSEEKANKLLEFIDKEKENILKCPDRILEETMKNYQSDPIYRGLIDEMCDFIKNNIDVNEVDYISGGERRDWFFSPIIAKLLNKPHITIYKDLTTVVSSDGKTEELKELNGESVLHIADLITEASSYERAWIPAIKNNGGRIKWSVVVVDRKQGGAELLKSYDIKSFSMVDIDIGLFKRVLDMGLIDRGQFEMIEQYILDPKESMAKFLRKNEGHHHHHH | not soluble
MSLGSFTDVPANSQFYTEISWLASQGISTGWVEANGTSTYRPALAVNRDAMAAFMYRLAGSPAYTPPGTSPFIDVTPQTQFYKEIAWLASKGISTGWDEGNGAKSYRPLQTVNRDAMAAFMYRFAGSPAYNAPGASLFTDVVPQTQFYKEINWLASMNISTGWVEGNGTRTFRPVQSVNRDAMAAFMYRYNNAFPAEGHHHHHH | not soluble
MSLGSGSGLSYNAGITQDNFLGMGSSLGLNGSRNTDSTNVNLSYTEPYFTKDGVSLGGNIFYEDYDNSARKASAAYKRKTYGASGTLGFPVDENNSYYLGLGYTHDKLRNVEREYTREKYVNSMKFPINPQNSHYDRIQSADFDLSFGWNYNNLNRGYFPTAGSSANISGKLTLPGSDNKYYQVGTNFSGYIPLNSEHKWVIATKGGLAYTNSFGGKEVPFYQLYSAGGMGSLRGFAGGSIGPKAIYYREDGFKAPSQDVIGGNAMVNASLELIIPAPFISDKYQHNVRTSVFVDAATVWNTKWKQSKADYPNLPDFGDYKRVRASAGIALQWQSPIGPLSFSYAKPIKKYAGDEIEQFQFTVGSTFEGHHHHHH | not soluble
MSLGTFRFGTSATPEGKTLLVDSKGLILDGKHIIPVMGEIHYSRVPESEWRREIRKMKAGGINIISTYIFWIHHEPEEGKWNWSGNHNLRRFVRICAEENVMLVLRLGPFCHGEVYQGGIPSWVHEKAGQNPKYKIRARTPGFLEDCTELYNTIFAQVNGLLWKDGGPVVGVQIENESRGPWDYLEALKNIAVKAGFDVPFYTRTGWPALRGKEVFGQLLPLYGDYADGFWDRKLEDMPGSYADAFIMRDKRMSSAIATETFSKEELSEDSPSLSSKLSYPYFTCELGGGMMPAYHRRININGKELKPLVICKLGSGSNLPGYYMYHGGTNPYNPLHTMGETQSSPGTNHNDLPHMTYDFQAPLGEVGQVFETPFHEGRFIHQMLTDWGSELLQMNVDSLSRHYARRGAFEFYNDYVRIKNESGTSHVTFKDYRTEGATIDWTTVEPFCKVDGLIYFIEIRGKKPQISVDGKVYTCKLNKQQKAGKLNVCVLSYEKAKTAYKIDGKLLYAKNGGILYKSDSCIVEEVWTKSPVIAATVTEVKKADAPRVVPMGRQAVAAQPVEEDFAKAAVYTINYDTSGINNYDNLFLRINYRGDVARVYADGRLVADNFWNGKEMWVRMADLVGKKVELKILPLRKDAPVYFQKEQKAMIEATKGDYMLGLDSVEVIERHTLEFNDTEGHHHHHH | soluble
MSLGTPSEPTSTLESDIFDDLSLYYLEDVFLSATTPSPTFDLSDPSDPSLSDSFDSEWSPMTPCSIERPETSTSSIFSFEARPIKTPPPAEYLRLPTFLSTNNSGFFDSVVASDFNLYGKFNDWLNDSKPRSGSFAIESAEELARNPRETRSEPEVPSLFKRREYGCGYCRSVGYMRWETHTRKKCDKLSSLAPCKICGARGEMNHTETYCPMKPSSQLFFNEDFSRDFENRRFQRSRYQFYKHSSLIQKIYASSEDSF | not soluble
MSLGVTMHDVAKAAGVSAITVSRVLNQPQQVSEQLREKVMQAVDALAYVPSRSASTLASAKSRTVLVLIPSLANTVFLETLTGIETVLDAAGYQMLIGNSHYDAGQELQLLRAYLQHRPDGVLITGLSHAEPFERILSQHALPVVYMMDLADDGRCCVGFSQEDAGAAITRHLLSRGKRRIGFLGAQLDERVMKRLDGYRAALDAADCRDAGLEWLDPQPSSMQMGADMLDRALAERPDCDALFCCNDDLAIGALARSQQLGIAVPERLAIAGFNDLQPAAWCTPPLTTVATPRRDIGVHAAKALLQLIDGEEPASRRADLGFRLMLRRSSEGHHHHHH | soluble
MSLHELKAAAFPQTTEKISPNWESGINVDLAISTRQYHMQQLFYRYGENNSLSVEGFRKLLQNIGIDKIKRIHIHHDHDHHSDHEHHSDHERHSDHEHHSDHEHHSDHNHAASGKNKRKALCPDHDSDSSGKDPRNSQGKGAHRPEHASGRRNVKDSVSASEVTSTVYNTVSEGTHFLETIETPRPGKLFPKDVSSSTPPSVTSKSRVSRLAGRKTNESVSEPRKGFMYSRNTNENPQECFNASKLLTSHGMGIQVPLNATEFNYLCPAIINQIDARSCLIHTSEKEGHHHHHH | not soluble
MSLHGNSEMQKINQTSAMPEKTDVHWSGRFSVAPMLDWTDRHCRYFLRLLSRNTLLYTEMVTTGAIIHGKGDYLAYSEEEHPVALQLGGSDPAALAQCAKLAEARGYDEINLNVGCPSDRVQNGMFGACLMGNAQLVADCVKAMRDVVSIPVTVKTRIGIDDQDSYEFLCDFINTVSGKGECEMFIIHARKAWLSGLSPKENREIPPLDYPRVYQLKRDFPHLTMSINGGIKSLEEAKAHLQHMDGVMVGREAYQNPGILAAVDREIFGSSDTDADPVAVVRAMYPYIERELSQGTYLGHITRHMLGLFQGIPGARQWRRYLSENAHKAGADINVLEHALKLVADKREGHHHHHH | soluble
MSLHLALLMRGGDPHCILDFGAGNGELCKLIALQFCYEPTPSLMAEAKENLADLPQISFCSDLEKISDGSVELIFCLEVFEHLPEKETKDALGQFDRLLTDNGNAVIGVPVEIGIPALYKGIFRMSRRFNTFDASIKNVLLAALSFPPKDRPVSEITPGFAFHHEHMGFDYRKLQALLHAQFGLQQVTTSPFSIFGPWLNPEVNFLIQKANPAVNADAAR | not soluble

From the DeepSol protein solubility set
